This test concerns the target C-terminal domain of Caenorhabditis elegans KCC-1, wild type, as used in solution (SEC, SEC/MALS) (C. elegans). Description: SEC. In general terms: SEC sorts molecules by how far they enter the pores of the column.

A word on the stoichiometry N: it is a count of units in the complex or per binding partner. On to “C-terminal domain of Caenorhabditis elegans KCC-1, wild type, as used in solution (SEC, SEC/MALS) (domain or fragment)”, for which the stoichiometry N came to 2.
